Experimental data from US10456446B2, “Use of human small leucine zipper protein in osteogenesis procedure” (Korea University Research and Business Foundation, priority 2013, dated 2019).

What was measured:
[1] = target: T1, PPARγ2 and PGC1α (Homo sapiens, UniProt P37231); assay: GST pull-down, coactivator PGC1α on PPARγ2; assay type: binding; conditions: 10 nM RZD for 24 hours
T1 construct: expressed in transfected cells; host or cells: 293T (PGC1α endogenous)
T1 sequence (P37231 1-505): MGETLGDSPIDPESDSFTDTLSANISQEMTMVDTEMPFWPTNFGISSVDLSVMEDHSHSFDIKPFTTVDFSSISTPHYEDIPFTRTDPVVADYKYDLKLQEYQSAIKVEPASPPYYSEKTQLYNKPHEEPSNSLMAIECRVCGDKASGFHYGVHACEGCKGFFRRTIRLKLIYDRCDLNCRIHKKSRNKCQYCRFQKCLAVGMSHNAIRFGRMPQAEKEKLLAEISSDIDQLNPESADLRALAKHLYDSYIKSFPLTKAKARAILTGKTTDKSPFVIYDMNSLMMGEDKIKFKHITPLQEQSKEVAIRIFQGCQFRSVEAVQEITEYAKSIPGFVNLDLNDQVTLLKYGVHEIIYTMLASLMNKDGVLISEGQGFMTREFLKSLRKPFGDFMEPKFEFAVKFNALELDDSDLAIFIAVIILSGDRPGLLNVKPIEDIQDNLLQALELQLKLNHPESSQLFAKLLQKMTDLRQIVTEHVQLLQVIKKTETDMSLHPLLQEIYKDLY
Procedure: Therefore, in order to understand a regulation mechanism of sLZIP in the PPARγ2 transcriptional activity by binding to the FABP4 promoter region, an effect of sLZIP on the interaction between PPARγ2 and HDAC3 was examined. For this purpose, 293T cells were transfected with GST-HDAC3, Myc-PPARγ2 and Flag-sLZIP, and were treated or not treated with 10 nM of RZD for 24 hours. Cell lysates were subjected to GST pull-down analysis using a glutathione 4B bead, and a protein complex was analyzed in SDS-PAGE, and then immunoblotted with anti-GST, anti-Myc and anti-Flag antibodies (FIG. 6A). GST-HDAC3, GST-PPARγ2, Myc-PPARγ2, Flag-sLZIP and Ha-UB were expressed in the 293T cells, and the cells were treated with 10 nM of RZD for 24 hours. Cell lysates were subjected to GST pull-down analysis (FIG. 6B). GST-PPARγ2 and Flag-sLZIP were expressed in the 293T cells and treated with 10 nM of RZD for 24 hours. Cell lysates were subjected to GST pull-down analysis, and a protein complex was analyzed in SDS-PAGE, and then immunoblotted with anti-PGC1α, anti-GST and anti-Flag antibodies (FIG. 6C).

[2] = test system: ATDC5 cells; assay: Chondrocyte differentiation marker mRNA in ATDC5 cells, RT-PCR and real-time PCR; assay type: cell-based; conditions: sLZIP 0.1 μg to 0.5 μg, in a reaction with insulin
Procedure: According to instructions of the manufacturer, a TRIzol reagent (Invitrogen, Carlsbad, Calif.) was added to directly lyse cells in a culture dish. Accupower RT PreMix (BioNeer, Daejeon, Korea) was used to synthesize cDNA from 2 μg of total RNA. A reaction was performed for 60 minutes at 42° C. and for 5 minutes at 94° C. PCR amplification was performed using oligomers listed in Table 2 and a Hipi PCR Mix Kit (ELPIS). As an internal control group, GAPDH was amplified. A PCR product was subjected to electrophoresis in 1-2% (w/v) agarose gel containing 0.5 μg/mL ethidium bromide. A size of the PCR product was measured by comparing it with 1 kb DNA ladder marker (Invitrogen). An intensity of bands amplified according to RT-PCR was analyzed using MultiImage™ Light Cabinet (version 5.5, Alpha Innotech Corp., San Leandro, Calif.).
Real-time PCR was performed in LightCycler 480 using a SYBR Green Master Mix (Roche, Mannheim, Germany). β-actin was used as an internal control group. A target gene expression level rate with respect to β-actin was calculated using CT method. A Ct value is defined as a PCR cycle number at which a fluorescence signal reaches a fixed target threshold. Experiments were technically repeated three times for each experiment. […]

B1: sLZIP: human small leucine-zipper protein, isoform of LZIP, 354 amino acids, no transmembrane domain, GenBank FJ263669, SEQ ID NO: 1 (protein, listed as Homo sapiens)
chain: MELELDAGDQDLLAFLLEESGDLGTAPDEAVRAPLDWALPLSEVPSDWEVDDLLCSLLSPPASLNILSSSNPCLVHHDHTYSLPRETVSMDLESESCRKEGTQMTPQHMEELAEQEIARLVLTDEEKSLLEKEGLILPETLPLTKTEEQILKRVRRKIRNKRSAQESRRKKKVYVGGLESRVLKYTAQNMELQNKVQLLEEQNLSLLDQLRKLQAMVIEISNKTSSSSMYSSDTRGSLPAEHGVLSRQLRALPSEDPYQLELPALQSEVPKDSTHQWLDGSDCVLQAPGNTSCLLHYMPQAPSAEPPLEWPFPDLFSEPLCRGPILPLQANLTRKGGWLPTGSPSVILQDRYSG
With B1 the “complementing of coactivator PGC-la for PPARγ2” value [1] was “inhibited” and the “expression of chondrocyte differentiation marker genes (Sox9, ColIIIA1)” value [2] was “no influence”.
